Test results taken from the RNAGym collection of RNA variant scans (doi:10.1093/molbev/msab373).

B1: Azoarcus group I ribozyme (parent)
chain: GUGCCUUGCGCCGGGAAACCACGCAAGGGAUGGUGUCAAAUUCGGCGAAACCUAAGCGCCCGCCCGGGCGUAUGGCAACGCCGAGCCAAGCUUCGGCGCCUGCGCCGAUGAAGGUGUAGAGACUAGACGGCACCCACCUAAGGCAAACGCUAUGGUGAAGGCAUAGUCCAGGGAGUGGCGAAAGUCACACAAACCGG

Variants of: B1
Experiment: reverse-splicing fitness (ratio to wild type); higher = more active; in vitro selection; Mg2+ level not given
Procedure, shortened: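 An in vitro group I ribozyme library with randomized positions was T7-transcribed and gel-purified. In triplicate, 10 pmol RNA in EPPS pH 7.5 was reacted with 50 pmoles of a 30-nt RNA substrate for 1 h at 37 °C across several added MgCl2 levels (1–48 mM), then stopped with EDTA. Products were reverse transcribed from a substrate-complementary primer, PCR-amplified and sequenced (HiSeq 4000). Fitness is a variant's read proportion after selection over that before, normalised to wild type.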

Compared with GUGCCUUGCGCCGGGAAACCACGCAAGGGAUGGUGUCAAAUUCGGCGAAACCUAAGCGCCCGCCCGGGCGUAUGGCAACGCUGAGCCAAGCUUCGGCGCCUGCGCCGAUGCAGGUGUAGCGACUAGACGGCACCCACCUAAGGCUAACGUUAUGGUGAAGGCAUAGUCCAGGGAGAGGCGAAAGUCACACAAACCGG, GUGCCUUGCGCCGGGAAACCACGCAAGGGAUGGUGUCAAAUUCGGCGAAACCUAAGCGCCCGCCCGGGCGUAUGGCAACGCUGAGCCAAGCUUCGGCGCCUGCGCCGAUGCAGGUGUAGCGACUAGACGGCACCCACCUAAGGCUAACGUUAUGGUGAAGGCAUAGUCCAGGGAGCGGCGAAAGUCACACAAACCGG is higher in reverse-splicing fitness: 0.0105 for the first, 0.0144 for the second.

First: GUGCCUUGCGCCGGGAAACCACGCAAGGGAUGGUGUCAAAUUCGGCGAAACCUAAGCGCCCGCCCGGGCGUAUGGCAACGCUGAGCCAAGCUUCGGCGCCUGCGCCGAUGCAGGUGUAGCGACUAGACGGCACCCACCUAAGGCUAACGCUAUGGUGAAGGCAUAGUCUAGGGAGUGGCGAAAGUCACACAAACCGG
Second: GUGCCUUGCGCCGGGAAACCACGCAAGGGAUGGUGUCAAAUUCGGCGAAACCUAAGCGCCCGCCCGGGCGUAUGGCAACGCUGAGCCAAGCUUCGGCGCCUGCGCCGAUGCAGGUGUAGCGACUAGACGGCACCCACCUAAGGCUAACGCUAUGGUGAAGGCAUAGUCGAGGGAGUGGCGAAAGUCACACAAACCGG
The reverse-splicing fitness of the first is higher: 0.0103 for the first, 0.00753 for the second.

First: GUGCCUUGCGCCGGGAAACCACGCAAGGGAUGGUGUCAAAUUCGGCGAAACCUAAGCGCCCGCCCGGGCGUAUGGCAACGCUGAGCCAAGCUUCGGCGCCUGCGCCGAUGCAGGUGUAGCGACUAGACGGCACCCACCUAAGGCUAACGCUAUGGUGAAGGCAUAGUCAAGGGAGUGGCGAAAGUCACACAAACCGG
Second: GUGCCUUGCGCCGGGAAACCACGCAAGGGAUGGUGUCAAAUUCGGCGAAACCUAAGCGCCCGCCCGGGCGUAUGGCAACGCUGAGCCAAGCUUCGGCGCCUGCGCCGAUGCAGGUGUAGCGACUAGACGGCACCCACCUAAGGCUAACGCUAUGGUGAAGGCAUAGUCUAGGGAGCGGCGAAAGUCACACAAACCGG
The reverse-splicing fitness of the first is lower: 0.00732 for the first, 0.0145 for the second.

Compared with GUGCCUUGCGCCGGGAAACCACGCAAGGGAUGGUGUCAAAUUCGGCGAAACCUAAGCGCCCGCCCGGGCGUAUGGCAACGCUGAGCCAAGCUUCGGCGCCUGCGCCGAUGCAGGUGUAGCGACUAGACGGCACCCACCUAAGGCUAACGCUAUGGUGAAGGCAUAGUCUAGGGAGAGGCGAAAGUCACACAAACCGG, GUGCCUUGCGCCGGGAAACCACGCAAGGGAUGGUGUCAAAUUCGGCGAAACCUAAGCGCCCGCCCGGGCGUAUGGCAACGCUGAGCCAAGCUUCGGCGCCUGCGCCGAUGCAGGUGUAGCGACUAGACGGCACCCACCUAAGGCUAACGCUAUGGUGAAGGCAUAGUCUAGGGAGGGGCGAAAGUCACACAAACCGG is lower in reverse-splicing fitness: 0.0127 for the first, 0.0054 for the second.

First: GUGCCUUGCGCCGGGAAACCACGCAAGGGAUGGUGUCAAAUUCGGCGAAACCUAAGCGCCCGCCCGGGCGUAUGGCAACGCUGAGCCAAGCUUCGGCGCCUGCGCCGAUGCAGGUGUAGCGACUAGACGGCACCCACCUAAGGCUAACGUUAUGGUGAAGGCAUAGUCUAGGGAGUGGCGAAAGUCACACAAACCGG
Second: GUGCCUUGCGCCGGGAAACCACGCAAGGGAUGGUGUCAAAUUCGGCGAAACCUAAGCGCCCGCCCGGGCGUAUGGCAACGCUGAGCCAAGCUUCGGCGCCUGCGCCGAUGCAGGUGUAGCGACUAGACGGCACCCACCUAAGGCUAACGUUAUGGUGAAGGCAUAGUCAAGGGAGUGGCGAAAGUCACACAAACCGG
The reverse-splicing fitness of the first is higher: 0.0107 for the first, 0.00892 for the second.

First: GUGCCUUGCGCCGGGAAACCACGCAAGGGAUGGUGUCAAAUUCGGCGAAACCUAAGCGCCCGCCCGGGCGUAUGGCAACGCUGAGCCAAGCUUCGGCGCCUGCGCCGAUGCAGGUGUAGCGACUAGACGGCACCCACCUAAGGCUAACGUUAUGGUGAAGGCAUAGUCGAGGGAGUGGCGAAAGUCACACAAACCGG
Second: GUGCCUUGCGCCGGGAAACCACGCAAGGGAUGGUGUCAAAUUCGGCGAAACCUAAGCGCCCGCCCGGGCGUAUGGCAACGCUGAGCCAAGCUUCGGCGCCUGCGCCGAUGCAGGUGUAGCGACUAGACGGCACCCACCUAAGGCUAACGUUAUGGUGAAGGCAUAGUCCAGGGAGUGGCGAAAGUCACACAAACCGG
The reverse-splicing fitness of the first is lower: 0.00745 for the first, 0.0199 for the second.

First: GUGCCUUGCGCCGGGAAACCACGCAAGGGAUGGUGUCAAAUUCGGCGAAACCUAAGCGCCCGCCCGGGCGUAUGGCAACGCUGAGCCAAGCUUCGGCGCCUGCGCCGAUGCAGGUGUAGCGACUAGACGGCACCCACCUAAGGCUAACGUUAUGGUGAAGGCAUAGUCUAGGGAGGGGCGAAAGUCACACAAACCGG
Second: GUGCCUUGCGCCGGGAAACCACGCAAGGGAUGGUGUCAAAUUCGGCGAAACCUAAGCGCCCGCCCGGGCGUAUGGCAACGCUGAGCCAAGCUUCGGCGCCUGCGCCGAUGCAGGUGUAGCGACUAGACGGCACCCACCUAAGGCUAACGUUAUGGUGAAGGCAUAGUCUAGGGAGAGGCGAAAGUCACACAAACCGG
The reverse-splicing fitness of the first is lower: 0.00597 for the first, 0.0142 for the second.

GUGCCUUGCGCCGGGAAACCACGCAAGGGAUGGUGUCAAAUUCGGCGAAACCUAAGCGCCCGCCCGGGCGUAUGGCAACGCUGAGCCAAGCUUCGGCGCCUGCGCCGAUGCAGGUGUAGCGACUAGACGGCACCCACCUAAGGCUAACGUUAUGGUGAAGGCAUAGUCUAGGGAGCGGCGAAAGUCACACAAACCGG showed a reverse-splicing fitness of 0.0161.
